Data as given in doi:10.1101/2020.09.13.295485.

Target: His-GB1-tagged C-domain of CRT_(Del52) (human) (UniProt P27797)
Assay: non-reducing SDS-PAGE with immunoblot

In the case of “His-GB1-tagged C-domain of CRT_(Del52) (from UniProt P27797 357-366) (domain or fragment)”, the stoichiometry N is reported as 2.
